Source: article PMC4865677, “Dataset of gene cloning and gel filtration chromatography of R-est6” (Data in Brief, 2016)

Target: the molecule itself
Assay: SEC; Ni-NTA affinity purified R-est6 loaded on a Superdex 75 column calibrated with known molecular weight markers; protein in peak 1 and peak 2 confirmed as R-est6 on SDS-PAGE

B1: R-est6, family 6 carboxylesterase from Methylococcus capsulatus (bath) (enzyme, Methylococcus capsulatus (bath strain), UniProt Q60CN0 1-336, looked up)
chain: MSTFDRGFARLLLEICRYTYAKAFALAPEEGDALQWIEQQGGKPDPASLEPIRGGDTSVACVFRYPDKNVVAYMGTKTEFDNAVNAKDSIEDWLNNFRAAPVPFKLGKEHLGLDKEVELPGRVHAGFLSELKAVQAKVIDVLSKNGGKDKPLYLTGHSQGGAEATLATVALLAGGFKVAATYTFAAPRAGDRTFADAVPAEFPFHRIEFGDDIVPHVPPTLLSRWVKTLVTVPRHLPLKRFGVPVKVNEFLELSVHDLGYVGVGRLCYGNHESGQLHVDMSVRQEASLFLGRLTRLLRHPEHWAEHHHLAGTRAEVSAGKKGNYTALVSDFPIVEG
notes: also called MCA0075
binding result: binds
